Values joined by “and” are separate entries in the source; they are usually repeats but may differ in a detail not shown here. Equal entries are not always repeated. Marks after values point to notes of the source that are not given here.
Key:
CYP3A4 [1] = experiment: Western blot with anti-CYP3A12 polyclonal antibody; design: species or system human
Experimental: FIG. 7: Immunoblot of wild-type CYP3A4 (3A4), R130Q (M2), T363M (M5), and P416L (M7). P450 (1 pmol) was loaded into each lane, transferred to nitrocellulose, and probed with anti-3A12 IgG as described in Materials and Methods.
(§1) Mutants were expressed in E. coli TOPP3 cells. Cultures of each strain were started from single colonies in 2-ml of LB media containing ampicillin (50 μg/ml) and tetracycline (15 μg/ml) and grown overnight at 37° C. with shaking. Larger, 20-ml cultures of each sample were inoculated and grown as described for the 2-ml cultures. Starter cultures (15 ml) were inoculated into 250-ml of TB media containing ampicillin (50 μg/ml) and grown 2-3 hr at 37° C. at 250 rpm. δ-aminolevulinic acid (80 mg/L) and IPTG (1 mM) were added and the cultures grown 72 hr at 30° C. at 190 rpm. The cells were harvested, sonicated and CHAPS solubilized, and the protein was purified on Talon Metal Affinity resin from Clontech (Palo Alto, Calif.). Final P450 content was measured by reduced CO difference spectra (Omura, J Biol Chem 239 (1964), 2370-2378), and each protein was visualized on an 8.5% SDS PAGE gel stained with Coomassie blue. Western Blot analysis of CYP3A4 wild-type, M2, M5 and M7 was performed by resolving 1 pmol of 3A4 wildtype and M5, and 8 μl of M2 and M7 total protein sample on an 8.5% SDS PAGE gel. The samples were then transferred to nitrocellulose and probed with an anti-3A12 polyclonal antibody known to cross-react with CYP3A4 (Ciaccio, Arch Biochem Biophys 271 (1989), 284-99).
The effect of the protein variants on the expression level and catalytical activity of CYP3A4 was investigated using a bacterial CYP3A4 expression system. Sequence variants were introduced into the pSE3A4H expression vector (Harlow, J Biol Chem 272 (1997), 5396-402) which encodes for a CYP3A4 protein identical to that found in most Caucasians. […] Mutants M1-M8 were expressed in E. coli as described in Example 5, the expression of the CYP3A4 holoenzyme assessed by measuring reduced CO difference spectra, and the protein purified. […]

CYP3A4 [2] = experiment: 7-Benzyloxy-4-(trifluoromethyl)coumarin (7-BFC) debenzylase activity of wild-type and mutant CYP3A4 proteins; assay type: biochemical, human; conditions: for 7-BFC debenzylase activity, 7-hydroxy-4-(trifluoromethyl)coumarin: substrate 7-BFC
Experimental: as §1
(§2) Following the reconstitution with NADPH-cytochrome P450 reductase and cytochrome b5, the catalytical activities of M1, M4, M5 and M6 variants were measured using testosterone, progesterone and 7-BFC as substrates (Tables 5-7).

CYP3A4 [3] = experiment: Progesterone hydroxylase activity of wild-type and mutant CYP3A4 proteins; assay type: biochemical, human
Experimental: as §1, §2

CYP3A4 [4] = experiment: Testosterone hydroxylase activity of wild-type and mutant CYP3A4 proteins (reconstituted with NADPH-cytochrome P450 reductase and cytochrome b5); assay type: biochemical, human; conditions: for Testosterone hydroxylase activity relative to wild-type CYP3A4: 25 μM testosterone (lower steroid concentration)
Experimental: as §1, §2

CYP3A4 [5] = molecular target: T1, CYP3A4 (Homo sapiens, UniProt P08684, T363M); experiment: 7-Benzyloxy-4-(trifluoromethyl)coumarin (7-BFC) debenzylase activity of wild-type and mutant CYP3A4 proteins; assay type: biochemical; conditions: Table 7
T1 construct: made in house; host or cells: E. coli TOPP3
T1 sequence (P08684 2-503 T363M): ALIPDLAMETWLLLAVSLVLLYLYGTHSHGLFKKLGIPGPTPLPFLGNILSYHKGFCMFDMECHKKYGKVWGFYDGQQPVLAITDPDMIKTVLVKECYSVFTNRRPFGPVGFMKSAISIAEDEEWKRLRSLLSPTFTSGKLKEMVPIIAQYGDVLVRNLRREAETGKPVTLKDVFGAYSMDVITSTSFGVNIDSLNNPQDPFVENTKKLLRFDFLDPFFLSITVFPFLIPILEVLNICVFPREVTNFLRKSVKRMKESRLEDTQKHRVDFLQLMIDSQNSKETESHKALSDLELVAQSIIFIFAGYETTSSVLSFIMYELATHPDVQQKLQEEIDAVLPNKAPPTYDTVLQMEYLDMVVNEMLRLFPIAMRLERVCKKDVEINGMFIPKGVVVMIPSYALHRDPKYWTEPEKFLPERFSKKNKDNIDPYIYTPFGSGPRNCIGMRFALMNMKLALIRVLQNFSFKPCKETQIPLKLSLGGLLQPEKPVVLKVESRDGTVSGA
Experimental: as §1, §2

CYP3A4 [6] = molecular target: T1, CYP3A4; experiment: Progesterone hydroxylase activity of wild-type and mutant CYP3A4 proteins; assay type: biochemical; conditions: Table 6
Experimental: as §1, §2

CYP3A4 [7] = molecular target: T1, CYP3A4; experiment: Testosterone hydroxylase activity of wild-type and mutant CYP3A4 proteins (reconstituted with NADPH-cytochrome P450 reductase and cytochrome b5); assay type: biochemical; conditions: Table 5
Experimental: as §1, §2

CYP3A4 holoenzyme = experiment: Expression of CYP3A4 holoenzyme in E. coli, reduced CO difference spectra; design: species or system human
Experimental: as §1
The effect of the protein variants on the expression level and catalytical activity of CYP3A4 was investigated using a bacterial CYP3A4 expression system. Sequence variants were introduced into the pSE3A4H expression vector (Harlow, J Biol Chem 272 (1997), 5396-402) which encodes for a CYP3A4 protein identical to that found in most Caucasians. No other, unwanted mutations were introduced into the CYP3A4 insert or the promoter driving its expression as confirmed by sequencing. Mutants M1-M8 were expressed in E. coli as described in Example 5, the expression of the CYP3A4 holoenzyme assessed by measuring reduced CO difference spectra, and the protein purified. All but M2, M5 and M7 mutants were detectable at levels similar to CYP3A4. […] The expression of M2, M5, and M7 was further investigated by Western Blotting using an anti-CYP3A12 polyclonal antibody known to cross-react with CYP3A4 (Ciaccio, Arch Biochem Biophys 271 (1989), 284-99) as described in Example 5.

CYP3A4 [8] = molecular target: T2, CYP3A4 (Homo sapiens, UniProt P08684, D174H); experiment: Progesterone hydroxylase activity of wild-type and mutant CYP3A4 proteins; assay type: biochemical; conditions: lower steroid concentration
T2 construct: made in house; host or cells: E. coli TOPP3
T2 sequence (P08684 2-503 D174H): as the sequence (P08684 2-503 T363M) above, with D173H, M362T counted along it
Experimental: as §1, §2

[9] = E. coli expression, reduced CO difference spectra

| Substance | Band in immunoblot (CYP3A4 [1]) | 7-BFC debenzylase activity, 7-hydroxy-4-(trifluoromethyl)coumarin (CYP3A4 [2]) | Progesterone hydroxylase 6β/16α ratio (CYP3A4 [3]; 25 μM progesterone) | Progesterone hydroxylase activity, 6β-OH (CYP3A4 [3]; 25 μM progesterone) | Progesterone hydroxylase activity, 16α-OH (CYP3A4 [3]; 25 μM progesterone) | Progesterone hydroxylase 6β/16α ratio (CYP3A4 [3]; 150 μM progesterone) | Progesterone hydroxylase activity, 6β-OH (CYP3A4 [3]; 150 μM progesterone) | Progesterone hydroxylase activity, 16α-OH (CYP3A4 [3]; 150 μM progesterone) | Testosterone hydroxylase activity, 2β-OH (CYP3A4 [4]; 25 μM testosterone) | Testosterone hydroxylase activity, 6β-OH (CYP3A4 [4]; 25 μM testosterone) | Testosterone hydroxylase activity, 15β-OH (CYP3A4 [4]; 25 μM testosterone) | Testosterone hydroxylase activity, 2β-OH (CYP3A4 [4]; 400 μM testosterone) | Testosterone hydroxylase activity, 6β-OH (CYP3A4 [4]; 400 μM testosterone) | Testosterone hydroxylase activity, 15β-OH (CYP3A4 [4]; 400 μM testosterone) | Effect of mutation on expression of CYP3A4 holoenzyme (conclusion) (CYP3A4 holoenzyme) | Testosterone hydroxylase metabolite profile compared with wild-type CYP3A4 (CYP3A4 [4]) | also measured |
| --- | --- | --- | --- | --- | --- | --- | --- | --- | --- | --- | --- | --- | --- | --- | --- | --- | --- |
| WT: wild-type CYP3A4 protein encoded by pSE3A4H vector, identical to that found in most Caucasians, expressed in E. coli [reference compound] | Bands of the expected size | 6.5^a nmol product/min/nmol protein | 7.1 | 12.1^a nmol product/min/nmol protein | 1.7 nmol product/min/nmol protein | 5.0 | 32.1^a nmol product/min/nmol protein | 6.4 nmol product/min/nmol protein | 0.2 nmol product/min/nmol protein | 9.3^a nmol product/min/nmol protein | 0.4 nmol product/min/nmol protein | 3.0 nmol product/min/nmol protein | 41.6^a nmol product/min/nmol protein | 1.2 nmol product/min/nmol protein |  |  |  |
| M5: CYP3A4 protein variant T363M (g.21867C>T, exon 11) [Mutant M5] |  | 2.9^c nmol product/min/nmol protein | 9.8 | 5.9^c nmol product/min/nmol protein | 0.6 nmol product/min/nmol protein | 5.4 | 16.6^c nmol product/min/nmol protein | 3.1 nmol product/min/nmol protein | <0.1, <0.1 nmol product/min/nmol protein | 5.1^c nmol product/min/nmol protein | 0.1 nmol product/min/nmol protein | 3.6 nmol product/min/nmol protein | 19.5^c nmol product/min/nmol protein | 0.7 nmol product/min/nmol protein | diminishes |  | 7-BFC debenzylase activity compared with wild-type protein, in words (CYP3A4 [5]): approximately half that of wild-type protein; Progesterone hydroxylase activity compared with wild-type protein, in words (CYP3A4 [6]): approximately half that of wild-type protein; Testosterone hydroxylase activity compared with wild-type protein, in words (CYP3A4 [7]): approximately half that of wild-type protein; Stability of the protein (consistency of P450 measurements in multiple determinations) (CYP3A4 holoenzyme): some instability; Expression level of P450 holoenzyme relative to CYP3A4 (CYP3A4 holoenzyme; [9]): less than 10% |
| M6: CYP3A4 protein variant L373F (g.21896C>T, exon 11) [Mutant M6] |  | 4.5 nmol product/min/nmol protein and 5.2 nmol product/min/nmol protein | 7.5 and 7.7 | 15.8, nmol product/min/nmol protein and 12.3 nmol product/min/nmol protein | 2.1 nmol product/min/nmol protein and 1.6 nmol product/min/nmol protein | 7.9 and 7.7 | 40.1 nmol product/min/nmol protein and 49.8 nmol product/min/nmol protein | 5.1 nmol product/min/nmol protein and 6.5 nmol product/min/nmol protein | 3.5 nmol product/min/nmol protein and 2.8 nmol product/min/nmol protein | 10.1 nmol product/min/nmol protein and 8.6 nmol product/min/nmol protein | 1.7 nmol product/min/nmol protein and 1.3 nmol product/min/nmol protein | 29.2, nmol product/min/nmol protein and 36.3 nmol product/min/nmol protein | 45.3 nmol product/min/nmol protein and 58.8 nmol product/min/nmol protein | 5.9 nmol product/min/nmol protein and 7.7 nmol product/min/nmol protein |  | strikingly altered testosterone hydroxylase metabolite profile |  |
| M1: CYP3A4 protein variant G56D (g.6004G>A, exon 3) [Mutant M1] |  |  | 5.6, 5.6 | 7.8, nmol product/min/nmol protein and 7.9^b nmol product/min/nmol protein | 1.4, 1.4 nmol product/min/nmol protein | 5.1, 5.1 | 21.3, nmol product/min/nmol protein and 21.3^b nmol product/min/nmol protein | 4.2, 4.2 nmol product/min/nmol protein | <0.1, <0.1 nmol product/min/nmol protein | 5.1 nmol product/min/nmol protein and 4.8 nmol product/min/nmol protein | 0.2, 0.2 nmol product/min/nmol protein | 5.4 nmol product/min/nmol protein and 6.9 nmol product/min/nmol protein | 32.1, nmol product/min/nmol protein and 32.2^b nmol product/min/nmol protein | 1.2 nmol product/min/nmol protein and 1.1 nmol product/min/nmol protein |  | Neither M1 nor M4 mutant displayed alterations | 7-BFC debenzylase activity relative to CYP3A4 (CYP3A4 [2]): 137%; Progesterone (steroid) hydroxylase metabolite profile compared with wild-type CYP3A4 (CYP3A4 [3]): Neither M1 nor M4 mutant displayed alterations; Testosterone hydroxylase activity relative to wild-type CYP3A4 (CYP3A4 [4]): 53% |
| M7: CYP3A4 protein variant P416L (g.22026C>T, exon 11) [Mutant M7] | Only a very faint band |  |  |  |  |  |  |  |  |  |  |  |  |  | abolish |  | Detectable P450 holoprotein, in words (CYP3A4 holoenzyme; [9]): no detectable P450 holoprotein |
| M2: CYP3A4 protein variant R130Q (g.13908G>A, exon 5) [Mutant M2] | Bands of the expected size |  |  |  |  |  |  |  |  |  |  |  |  |  | abolish |  | Detectable P450 holoprotein, in words (CYP3A4 holoenzyme; [9]): no detectable P450 holoprotein |
| M4: CYP3A4 protein variant D174H (g.14304G>C, exon 6) [Mutant M4] |  | 2.3 nmol product/min/nmol protein and 1.9 nmol product/min/nmol protein |  | 5.5 nmol product/min/nmol protein and 5.4 nmol product/min/nmol protein | 0.5, 0.5 nmol product/min/nmol protein | 5.5 and 5.9 | 21.4 nmol product/min/nmol protein and 18.4 nmol product/min/nmol protein | 3.9 nmol product/min/nmol protein and 3.1 nmol product/min/nmol protein | <0.1, <0.1 nmol product/min/nmol protein | 4.4 nmol product/min/nmol protein and 3.9 nmol product/min/nmol protein | 0.1, 0.1 nmol product/min/nmol protein | 5.3 nmol product/min/nmol protein and 5.6 nmol product/min/nmol protein | 32.4 nmol product/min/nmol protein and 29.8 nmol product/min/nmol protein | 1.3 nmol product/min/nmol protein and 0.9 nmol product/min/nmol protein |  | Neither M1 nor M4 mutant displayed alterations | 7-BFC debenzylase activity relative to CYP3A4 (CYP3A4 [2]): < 50%; Progesterone (steroid) hydroxylase metabolite profile compared with wild-type CYP3A4 (CYP3A4 [3]): Neither M1 nor M4 mutant displayed alterations; Progesterone hydroxylase activity relative to wild-type CYP3A4 (CYP3A4 [8]): < 50%; Testosterone hydroxylase activity relative to wild-type CYP3A4 (CYP3A4 [4]): < 50% |

— US7655771B1, “Polymorphisms in the human cyp3a4 and cyp3a7 genes and their use in diagnostic and therapeutic applications” (PGx Health, LLC, priority 1999, dated 2010)
